Tests used:
[1] = biological target: human folate receptor 1 (FOLR1) (human)
[2] = biological target: human folate receptor 1 (FOLR1) (human); remark: listed apart in the source
[3] = biological target: human folate receptor 1 (FOLR1) (human); remark: listed apart in the source

Binder | IC50, nM (n = 3), Ab-based; in vitro cytotoxicity on IGROV-1 cells [2] [nM] | IC50, nM (n = 3), Ab-based; in vitro cytotoxicity on JEG-3 cells [2] [nM] | further results
huMov19 (antibody, V domains shown) VH: QVQLVQSGAEVVKPGASVKISCKASGYTFTGYFMNWVKQSPGQSLEWIGRIHPYDGDTFYNQKFQGKATLTVDKSSNTAHMELLSLTSEDFAVYYCTRYDGSRAMDYWGQGTTVTVSS VL: DIVLTQSPLSLAVSLGQPAIISCKASQSVSFAGTSLMHWYHQKPGQQPRLLIYRASNLEAGVPDRFSGSGSKTDFTLNISPVEAEDAATYYCQQSREYPYTFGGGTKLEIKR | – | – | ADCC, LDH release, percent specific lysis of IGROV-1 cells with human NK effector cells [1]: 30%; EC50 of ADCC activity on IGROV-1 cells [1]: 0.2 ng/mL
huMov19-SMCC-DM1 (antibody, V domains shown, maytansinoid DM1 linked to the antibody through the SMCC linker, 3.5-4 DM1 per antibody; attachment residues not stated) VH: QVQLVQSGAEVVKPGASVKISCKASGYTFTGYFMNWVKQSPGQSLEWIGRIHPYDGDTFYNQKFQGKATLTVDKSSNTAHMELLSLTSEDFAVYYCTRYDGSRAMDYWGQGTTVTVSS VL: DIVLTQSPLSLAVSLGQPAIISCKASQSVSFAGTSLMHWYHQKPGQQPRLLIYRASNLEAGVPDRFSGSGSKTDFTLNISPVEAEDAATYYCQQSREYPYTFGGGTKLEIKR | 1 | 20 | IC50, nM (n = 3), Ab-based; in vitro cytotoxicity on KB cells [2]: 0.1 nM; huAb-smcc-DM1 activity on KB in vitro [3]: 0.1 nM
huMov19-SPDB-DM4 (antibody, V domains shown, maytansinoid DM4 linked to the antibody through the SPDB linker, 3.5-4 DM4 per antibody; attachment residues not stated) VH: QVQLVQSGAEVVKPGASVKISCKASGYTFTGYFMNWVKQSPGQSLEWIGRIHPYDGDTFYNQKFQGKATLTVDKSSNTAHMELLSLTSEDFAVYYCTRYDGSRAMDYWGQGTTVTVSS VL: DIVLTQSPLSLAVSLGQPAIISCKASQSVSFAGTSLMHWYHQKPGQQPRLLIYRASNLEAGVPDRFSGSGSKTDFTLTISPVEAEDAATYYCQQSREYPYTFGGGTKLEIKR | – | 0.2 | –
huMov19-sulfo-SPDB-DM4 (antibody, V domains shown, maytansinoid DM4 linked to the antibody through the sulfo-SPDB linker, 3.5-4 DM4 per antibody; attachment residues not stated) VH: QVQLVQSGAEVVKPGASVKISCKASGYTFTGYFMNWVKQSPGQSLEWIGRIHPYDGDTFYNQKFQGKATLTVDKSSNTAHMELLSLTSEDFAVYYCTRYDGSRAMDYWGQGTTVTVSS VL: DIVLTQSPLSLAVSLGQPAIISCKASQSVSFAGTSLMHWYHQKPGQQPRLLIYRASNLEAGVPDRFSGSGSKTDFTLTISPVEAEDAATYYCQQSREYPYTFGGGTKLEIKR | 0.3 | – | –

From US20120009181A1
